For data set [1], the target named is T1, GATA-3 (Homo sapiens, UniProt P23771 1-443). Description: competition; excess unlabeled mutant did not compete with biotin-G3RE1; protein source conflict as above; LightShift EMSA Optimization & Control Kit (Thermo 20148) per manufacturer, 6% DNA retardation gel; buffer, salt, pH and temperature not stated. To be noted: protein: commercial; label: none.
For data set [2], the target named is T1, GATA-3. Description: competition; excess unlabeled mutant did not compete with biotin-G3RE2; protein source conflict as above; LightShift EMSA Optimization & Control Kit (Thermo 20148) per manufacturer, 6% DNA retardation gel; buffer, salt, pH and temperature not stated. To be noted: protein: commercial; label: none.

T1 sequence (P23771 whole entry): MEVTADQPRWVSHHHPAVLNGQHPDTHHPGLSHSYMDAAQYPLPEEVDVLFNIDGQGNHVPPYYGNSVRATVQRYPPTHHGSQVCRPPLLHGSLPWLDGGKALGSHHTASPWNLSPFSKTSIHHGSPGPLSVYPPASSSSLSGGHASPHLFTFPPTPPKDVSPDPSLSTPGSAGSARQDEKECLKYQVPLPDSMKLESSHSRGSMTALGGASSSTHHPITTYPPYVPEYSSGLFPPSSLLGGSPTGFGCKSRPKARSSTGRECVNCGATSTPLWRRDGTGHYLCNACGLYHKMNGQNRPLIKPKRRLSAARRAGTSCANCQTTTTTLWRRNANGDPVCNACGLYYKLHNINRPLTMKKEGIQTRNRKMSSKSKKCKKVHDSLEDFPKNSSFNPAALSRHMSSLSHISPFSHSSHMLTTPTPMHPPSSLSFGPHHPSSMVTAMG

B1: mutant G3RE1 probe (dsDNA)
DNA 1: TAGGAAGCTCCCATGGCAATAGCCCT
DNA 2: AGGGCTATTGCCATGGGAGCTTCCTA
For B1, the binding result in data set [1] was “no binding”.

B2: mutant G3RE2 probe (dsDNA)
DNA 1: TAACTACCCCAGAGTTGAAGGAGTGA
DNA 2: TCACTCCTTCAACTCTGGGGTAGTTA
As for B2, the binding result in data set [2] was “no binding”.

The values above are taken from article PMC4516985, “Transactivation of human osteoprotegerin promoter by GATA-3”.
